The numbers were not newly measured in article PMC3022668, which cites them from elsewhere.

One may read the Kd as a measure of binding affinity in units of concentration.

The target of this data set is streptavidin (Streptomyces avidinii) (UniProt P22629).
streptavidin (Streptomyces avidinii), sequence (P22629 25-183): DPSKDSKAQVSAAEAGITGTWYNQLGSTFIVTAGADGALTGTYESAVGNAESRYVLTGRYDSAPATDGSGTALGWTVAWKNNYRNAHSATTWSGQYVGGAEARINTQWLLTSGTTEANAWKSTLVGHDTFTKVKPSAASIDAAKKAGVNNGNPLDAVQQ

As for streptavidin-binding peptide (SBP), the Kd is 2.5 nM.
